Laboratory results published in US20030096379A1, “Method for producing tryptamine derivatives” (priority 2001, published 2003).

B1: TrpBA: wild-type E. coli DH5α tryptophan synthase, E.C.4.2.1.20, α- and β-subunits coexpressed (protein, UniProt P0A877 1-268; P0A879 2-397, looked up)
Tryptophan synthase alpha …: MERYESLFAQLKERKEGAFVPFVTLGDPGIEQSLKIIDTLIEAGADALELGIPFSDPLADGPTIQNATLRAFAAGVTPAQCFEMLALIRQKHPTIPIGLLMYANLVFNKGIDEFYAQCEKVGVDSVLVADVPVEESAPFRQAALRHNVAPIFICPPNADDDLLRQIASYGRGYTYLLSRAGVTGAENRAALPLNHLVAKLKEYNAAPPLQGFGISAPDQVKAAIDAGAAGAISGSAIVKIIEQHINEPEKMLAALKVFVQPMKAATRS
Tryptophan synthase beta chain: TTLLNPYFGEFGGMYVPQILMPALRQLEEAFVSAQKDPEFQAQFNDLLKNYAGRPTALTKCQNITAGTNTTLYLKREDLLHGGAHKTNQVLGQALLAKRMGKTEIIAETGAGQHGVASALASALLGLKCRIYMGAKDVERQSPNVFRMRLMGAEVIPVHSGSATLKDACNEALRDWSGSYETAHYMLGTAAGPHPYPTIVREFQRMIGEETKAQILEREGRLPDAVIACVGGGSNAIGMFADFINETNVGLIGVEPGGHGIETGEHGAPLKHGRVGIYFGMKAPMMQTEDGQIEESYSISAGLDFPSVGPQHAYLNSTGRADYVSITDDEALEAFKTLCLHEGIIPALESSHALAHALKMMRENPDKEQLLVVNLSGRGDKDIFTVHDILKARGEI
B2: TDC1: C. accuminata tryptophan decarboxylase expressed in E. coli DH5α (protein, UniProt P93082 1-502, looked up)
Tryptophan decarboxylase TDC1: MGSLDSNYDTESPASVGQFNPLDPEEFRKQAHCIVDFIADYYKNIESYPVLSQVDPGYRHSRLGKNAPYRSEPFESILKDVQKDIIPGMTHWMSPNFFAHFPATVSSAAFVGEMLCTCFNSVGFNWLASPAATELEMVVIDWLANMLKLPKSFMFSGTGGGVLQGTTSEAILCTLIAASPMHFEIVGVKTSTSFVVYGSDQTHSTYAKACKLAGILPCNIRSIPTTADSNFSVSPLLLRRAIEADKAAGMVPLYICATVGTTSTTAIDPLSSLADVANDYGVWFHVDAAYAGSACICPEFRHYLDGIERADSLSLSPHKWLLSYLDCCCLWVKSPSLLVKALSTDPEYLKNQPSESKSVVDYKDWQVGTGRRFKALRLWFVMRSYGVANLQSHIRTDVQMAKMFEGFVKSDPRFEILVPRVFSLVCFRLNPISGSDPTGTEALNRKLLDWVNSTGRVYMTHTKVGGIYMLRFAVGATLTEKRHVSSAWKLIKEGADVLLKED
B3: TDC2: C. accuminata tryptophan decarboxylase expressed in E. coli DH5α (protein, UniProt P93083 1-498, looked up)
Tryptophan decarboxylase TDC2: MGSIDSNYDTESAGQCRPLEPEEFRKQAHQMVDFIADYYKNIESYPVLSQVEPGYLQSRLPETAPYRPEPFESILKDVHKDIIPGVTHWLSPNFFAYFPATVSSAAFVGEMLCTCFNAVGFNWLASPAELELEMVVMDWLASMLKLPNSFTFLGTGGGVIQGTTSEAILCTLIAARDRALESIGVDSIHKLVVYGSDQTHSTYAKACNLAGILPCNIRSIRTEAVANFSLSPDSLHREIEADVAAGMVPLYLCATVGTTSTTAIDSLSPLADVANDYGLWFHVDAAYAGSACICPEFRHYLDGIERADSLSLSPHKWLLSYLDCCCLWVKRPSVLVKALSTDPEYLKNKPSESNSVVDFKDWQVGTGRRFKALRLWFVMRSYGVANLQSHIRSDIQMAKMFEEFVNSDPRFEIVVPRVFSLVCFRLNPFSKSDPCNTELLNRKLLEWVNSTGQVYITHTKVGGVYMLRFAVGATLTEEHHVSAAWKLIREGADALLCS

What was measured:
[1] = target: T1, tryptophanase (TnA) (Escherichia coli, UniProt P0A853); type: biochemical, E. coli; parameters: key: +: a clear ninhydrin-positive spot at the Rf of standard tryptophan derivatives after 16-65 h; (+): a weak spot in the product region; −: no product observed; NR: experiment not run; details: indole derivative + L-serine + PLP, 37° C., 16-65 h, ninhydrin
T1 construct: made in house; host or cells: E. coli LMG194 (pBAD) or BL-21 (pET)
Description: (§1) A mixture containing 2 μmole of the indole derivative, 0.05 μmole of PLP and 50 μmol of L-serine in 40 mM KPi buffer in 8% v/v ethanol water, pH 7.5, was warmed to 37° C., then enzyme solution was added to give a final volume of 1 mL. Aliquots (100 μL) were quenched at intervals of 2, 6, and 24 hours or more in microcentrifuge capsules containing 25 μL of 6 M HCl. The quenched samples were evaporated in a Savant Speed-vac. The residues were resuspended in methanol/water (1:1, 50 μL) and analyzed by TLC on Silica gel GF254 plates alongside tryptophan and tryptamine standards, eluting with CH2Cl2/EtOH/H2O/HOAc 77:20:2:1. Products were visualized first by using short-wave UV light, then with ninhydrin spray reagent (1/1/98 w/v/v ninhydrin/HOAc/EtOH) followed by heating.
(§2) Substituted indoles were incubated with L-serine, PLP and enzyme (TrpBA or TnA) prior to TLC analysis as generally described in Example 6. Serine, which can be used instead of pyruvate and ammonia for tryptophan synthesis with TnA, was employed as the 3-carbon acid because pyruvate tended to obscure the tryptophan product spots when plates were visualized with ninhydrin. TnA-catalyzed formation of tryptophan was also faster when serine was the 3-carbon donor. Reaction rates for several substrates were also estimated by HPLC.
(§3) In Table 4, “+” indicates a clear ninhydrin-positive spot at the Rf of standard tryptophan derivatives after 16-65 h; “(+)” indicates a weak spot in the product region; “−” means no product observed, “NR” means experiment not run. ESMS=electrospray mass spectrometry. Unless otherwise indicated, the mass value given represents the singly-protonated molecular ion (M+1).

[2] = target: T2, E. coli DH5α tryptophan synthase (TrpBA) (Escherichia coli, UniProt P0A879); type: biochemical; parameters: key: +: a clear ninhydrin-positive spot at the Rf of standard tryptophan derivatives after 16-65 h; (+): a weak spot in the product region; −: no product observed; NR: experiment not run; details: indole derivative + L-serine + PLP, 37° C., 16-65 h, ninhydrin
T2 construct: made in house; host or cells: E. coli LMG194 (pBAD) or BL-21 (pET)
Description: as §1, §2, §3

[3] = target: T3, TrpBA (Escherichia coli, UniProt P0A879); experiment: Relative rates of tryptophan derivative synthesis by HPLC, TrpBA; type: biochemical, E. coli; details: initial rate estimated by HPLC, indole = 100%, L-serine
T3 construct: made in house; host or cells: E. coli LMG194 (pBAD) or BL-21 (pET)
Description: (§4) Reaction mixtures were prepared as in Example 6 and were incubated at 37° C. Aliquots (100 μL) were removed and quenched by addition of to 300 μL of 0.5 M sodium citrate, pH 3.0 in 10% v/v acetonitrile/water in 2 ml microcentrifuge tubes. Following centrifugation for 10 min at 13,000×g, the supernatants were passed through 0.45μ membrane filters prior to HPLC analysis of 20 μL of filtrate.
(§5) TnA reactions were run with L-serine as the 3-carbon substrate.

[4] = target: T4, TnA (Escherichia coli, UniProt P0A853); experiment: Relative rates of tryptophan derivative synthesis by HPLC, TnA; type: biochemical, E. coli; details: initial rate estimated by HPLC, indole = 100%, L-serine as the 3-carbon substrate
T4 construct: made in house; host or cells: E. coli LMG194 (pBAD) or BL-21 (pET)
Description: as §4, with “Aliquots” for “Reaction mixtures were prepared as in Example 6 and were incubated at 37° C. Aliquots”
as §5

[5] = tested on: TrpBA and TDC1; experiment: Coupled enzyme synthesis monitored by HPLC; type: biochemical; details: L-serine, PLP, pH 8.5 phosphate buffer, 37° C.
Description: To a solution containing L-serine (25 μmol), pyridoxal phosphate (0.05 μmol) and TrpBA (0.02 to 1.5 units, depending on the substrate), TDC1 (0.2 mL 0.6 units) and KPi buffer (0.05 mmol, pH 7.5) in a volume of 0.8 mL were added […] of 5 mM indole derivative in 20% v/v ethanol/water. The mixture was incubated at 37° C. and aliquots were quenched and analyzed as described for Example 8. In cases where tryptamine and/or tryptophan standards were not available, peaks were collected for mass spectral analysis. Electrospray mass spectral analyses were performed.
Mixtures containing indole, L-serine, PLP and TDC1 were incubated in pH 8.5 phosphate buffer, analyzing aliquots by HPLC, as described in Example 12.
The procedure used in Example 24 was carried out by substituting indole with 2-methylindole, 4-hydroxymethylindole, 5-methoxy-, 5-hydroxymethyl-, 5-methoxycarbonyl, and 5,6-dimethoxyindole.

[6] = Tryptophan synthase activity of the enzyme preparation (290 nm assay); type: biochemical, E. coli
Description: (§6) Tryptophan synthase activity was assayed by monitoring the increase in absorbance at 290 nm of a mixture containing serine, indole and PLP (Higgins, W., et al., Biochemistry, 1979, 18, 4827). TnA-catalyzed tryptophan synthesis was also measured by the 290 nm assay, while the tryptophan lyase reaction rate was measured by monitoring the reduction in NADH in reaction mixtures containing L-tryptophan and lactate dehydrogenase, indicating the amount of pyruvate released. Tryptophan decarboxylase was assayed colorimetrically by monitoring the sabsorbance at 580 nm produced by serotonin (AAADs) or tryptamine (TDCs) following treatment of reaction aliquots with Ehrlich's reagent (4-N,N-(dimethyl)aminobenzaldehyde in ethanolic HCl; Nakazawa, H.; Kumagi, H.; Yamada, H. Biochem Biophys. Res. Commun., 1974, 61, 75-82). Serotonin could be detected with approximately 5-fold higher sensitivity by this method as compared with tryptamine. The Ehrlich reagent assay using a microtiter plate format for simultaneous analysis of multiple enzyme samples may also be used. HPLC analysis was performed on acid-quenched reaction aliquots by using a base-deactivated C8 reversed-phase support (Shandon Hypersil BD8). HPLC analysis of acid-quenched aliquots permitted calculation of a rate ratio of 4.5 to 1 for pkAAAD-catalyzed DOPA decarboxylation relative to that of L-5-hydroxytryptophan, in good agreement with the accepted ratio of approximately 5:1. (See Sourkes, T. L. Methods Enzymol., 1987, 142, 170-178, which is incorporated herein by reference.)
Reaction mixtures were prepared as in Example 6 in polymethacrylate or quartz spectrophotometer cuvettes, and the increase absorbance were measured immediately at 290 nm, assuming a change in extinction coefficient for the indole-tryptophan conversion is δ290=1.85 MM−1 cm^−1. For TrpBA, the rate at 37° C. is approximately 2.8 fold higher than at 23° C.
Activity is expressed as μmol product formed per minute, TrpBA activity is reported for the reaction: indole+serine−>tryptophan at room temperature as described in the next section. Tryptophanase is reported for the reaction: tryptophan−>indole+pyruvate+NH4^+ at room temperature. The rate of tryptophan synthesis for TrpBA under our assay conditions is approximately 3-fold higher at 37° C.

[7] = pH-rate profiles for tryptophan-metabolizing enzymes; type: biochemical; details: for activity over the entire optimum pH range shown by TrpBA: pH 7.5 to 9.5
Text: Both AAADs TDC1 and TDC2 were active over the entire optimum range shown by TrpBA. These broad activity ranges make it clear that the coupled enzyme process is not limited by pH.

[8] = Decarboxylase activity of the enzyme preparations (Ehrlich's reagent); type: biochemical
Description: as §6
A mixture (0.95 mL) containing L-5-hydroxytryptophan (2 mM), PLP (0.25 mM) and pH 7.5 KPi buffer (44 mM) was warmed to 37° C., then 50 μL of enzyme was added. Reaction aliquots were quenched in microcentrifuge capsules containing 50 μL each of 6M HCl to quench the enzyme reaction at 2, 5, and 20 min. Quenched aliquots were heated at 50° C. for 40 min with 750 μL each of Ehrlich's reagent (2:24:74 w/v/v […]: conc HCl: ethanol). Absorbance was read at 580-nm and compared with standards of serotonin (10-250 μM) or tryptamine (50 to 2000 μM).
Decarboxylase enzyme activity was determined using L-5-hydroxytryptophan as the substrate unless otherwise stated.

[9] = Table 2, L-5-hydroxytryptophan as substrate

Molecule	TnA (tryptophan product spot, TLC analysis) [1]	TrpBA (tryptophan product spot, TLC analysis) [2]	Relative rate (TrpBA) [3] [%]	Relative Rate (TnA) [4] [%]	Crude specific activity [8, 9] [units/mg]	Purified specific activity [8, 9] [Units/mg]	Crude specific activity ([8]; Table 3, decarboxylases) [units/mg]	activity over the entire optimum pH range shown by TrpBA [7]	other results
c1cc2cc3c(cc2[nH]1)OCO3 [5,6-methylenedioxy-]	+	−	0.018	1.0					
OCc1ccc2[nH]ccc2c1 [5-hydroxymethyl-, indole-5-methanol]	+	+	0.03	1.2					formation of tryptophan derivative and tryptamine (HPLC peaks) [5]: a second peak representing formation of tryptamine
B1									rate at 37° C. relative to 23° C. ([6]; 290 nm assay): approximately 2.8 fold; Crude specific activity ([6]; Table 3, TrpBA): 1.2 units/mg; Crude spec activity ([6]; TrpBA, indole+serine->tryptophan, room temperature): 1.2; Purified specific activity ([6]; TrpBA, indole+serine->tryptophan, room temperature, after DEAE cellulose): 2.2 Units/mg; rate of tryptophan synthesis at 37° C. relative to room temperature ([6]; assay conditions of Table 1): approximately 3 fold; percent of the maximum rate ([7]; between pH 7.5 and 9.5, L-serine and indole): at least 90%
B2					0.11	0.3	0.11	active	
B3					0.12	0.2	0.12	active	
